Reference: US20180155451A1 (published 2018)

T1: FcγRIIb (human, UniProt P31994 43-217)
T1 construct: extracellular domain; also called FcgRIIb; 2b
T1 sequence (looked up): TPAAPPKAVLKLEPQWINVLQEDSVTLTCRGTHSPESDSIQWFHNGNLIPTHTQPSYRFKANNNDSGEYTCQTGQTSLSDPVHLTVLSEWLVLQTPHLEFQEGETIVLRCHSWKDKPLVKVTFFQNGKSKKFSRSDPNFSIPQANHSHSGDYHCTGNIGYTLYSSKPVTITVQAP

B1: GpH7-A5/GpH7-B3 variant S324_09D/GpL16-k0 (antibody, human IgG1, kappa)
heavy 1: not shown
heavy 2: not shown
light: DIVMTQSPLSLPVTPGEPASISCQASESLVHSNRNTYLHWYLQKPGQSPQLLIYKVSNRFSGVPDRFSGSGSGTDFTLKISRVEAEDVGVYYCSQNTHVPPTFGQGTKVEIERTVAAPSVFIFPPSDEQLKSGTASVVCLLNNFYPREAKVQWKVDNALQSGNSQESVTEQDSKDSTYSLSSTLTLSKADYEKHKVYACEVTHQGLSSPVTKSFNRGEC
notes: heterodimerized IgG1, one H chain mutated; also called He Ab
B2: GpH7-A5/GpH7-B3 variant S324_19Q/GpL16-k0 (antibody, human IgG1, kappa)
heavy 1: not shown
heavy 2: not shown
light: B1 light
notes: as for B1
B3: GpH7-A5/GpH7-B3 variant S324_15Y/GpL16-k0 (antibody, human IgG1, kappa)
heavy 1: not shown
heavy 2: not shown
light: B1 light
notes: as for B1
B4: GpH7-A5/GpH7-B3 variant S324_20W/GpL16-k0 (antibody, human IgG1, kappa)
heavy 1: not shown
heavy 2: not shown
light: B1 light
notes: as for B1
B5: GpH7-A5/GpH7-B3 variant Y300_03V/GpL16-k0 (antibody, human IgG1, kappa)
heavy 1: not shown
heavy 2: not shown
light: B1 light
notes: as for B1
B6: GpH7-A5/GpH7-B3 variant Y300_07I/GpL16-k0 (antibody, human IgG1, kappa)
heavy 1: not shown
heavy 2: not shown
light: B1 light
notes: as for B1
B7: GpH7-A5/GpH7-B3 variant Y300_05P/GpL16-k0 (antibody, human IgG1, kappa)
heavy 1: not shown
heavy 2: not shown
light: B1 light
notes: as for B1
B8: GpH7-A5/GpH7-B3 variant S324_14T/GpL16-k0 (antibody, human IgG1, kappa)
heavy 1: not shown
heavy 2: not shown
light: B1 light
notes: as for B1
B9: GpH7-A5/GpH7-B3 variant S324_10E/GpL16-k0 (antibody, human IgG1, kappa)
heavy 1: not shown
heavy 2: not shown
light: B1 light
notes: as for B1
B10: GpH7-A5/GpH7-B3 variant Y300_06M/GpL16-k0 (antibody, human IgG1, kappa)
heavy 1: not shown
heavy 2: not shown
light: B1 light
notes: as for B1
B11: GpH7-A5/GpH7-B3 variant S324_16H/GpL16-k0 (antibody, human IgG1, kappa)
heavy 1: not shown
heavy 2: not shown
light: B1 light
notes: as for B1
B12: GpH7-A5/GpH7-B3 variant Y300_02A/GpL16-k0 (antibody, human IgG1, kappa)
heavy 1: not shown
heavy 2: not shown
light: B1 light
notes: as for B1
B13: GpH7-A5/GpH7-B3 variant S324_12R/GpL16-k0 (antibody, human IgG1, kappa)
heavy 1: not shown
heavy 2: not shown
light: B1 light
notes: as for B1
B14: GpH7-A5/GpH7-B3 variant S324_18N/GpL16-k0 (antibody, human IgG1, kappa)
heavy 1: not shown
heavy 2: not shown
light: B1 light
notes: as for B1
B15: GpH7-A5/GpH7-B3 variant S324_11K/GpL16-k0 (antibody, human IgG1, kappa)
heavy 1: not shown
heavy 2: not shown
light: B1 light
notes: as for B1
B16: GpH7-A5/GpH7-B3 variant Y300_08L/GpL16-k0 (antibody, human IgG1, kappa)
heavy 1: not shown
heavy 2: not shown
light: B1 light
notes: as for B1

What was measured:
[1] = target: T2, FcγRIa (human, UniProt P12314 16-292); assay: SPR (Biacore); He/Con_1a (FcgRIa) divided by He/Con_2b (FcgRIIb)
T2 construct: extracellular domain; also called FcgRI; FcgRIa
T2 sequence (P12314 16-292): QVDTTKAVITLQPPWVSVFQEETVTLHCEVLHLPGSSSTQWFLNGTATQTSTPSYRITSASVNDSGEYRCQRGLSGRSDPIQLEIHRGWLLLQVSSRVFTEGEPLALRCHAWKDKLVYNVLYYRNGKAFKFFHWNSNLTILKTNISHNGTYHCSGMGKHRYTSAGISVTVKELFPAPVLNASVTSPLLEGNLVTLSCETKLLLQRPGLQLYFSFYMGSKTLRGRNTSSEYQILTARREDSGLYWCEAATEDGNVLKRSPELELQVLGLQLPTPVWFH
Procedure: The heterodimerized antibodies He Abs in which one of the H chains was introduced with an alteration were assayed for their binding activities to each activating FcγR and inhibitory FcγR according to the method described in Example 4. […] The activating FcγRs in FIGS. 26, 27, 28, and 29 are FcγRIa, FcγRIIa (R), FcγRIIa (H), and FcγRIIIa, respectively.
Analysis of interaction between objective antibody and the FcγR was carried out using Biacore T100 (GE Healthcare). HBS-EP+ (GE Healthcare) was used as the running buffer, and the measurement temperature was set to 25° C. Chips produced by immobilizing the antigen peptide by the amine coupling method to a Series S Sencor Chip CM5 (GE Healthcare), or alternatively, chips produced by allowing preliminarily biotinylated antigen peptides to interact with and immobilize onto a Series S Sensor Chip SA (certified) (GE Healthcare) were used. Antibodies of interest were captured onto an antigen peptide-immobilized chip, and allowed to interact to each FcγR diluted with running buffer. To regenerate and repeatedly use the chip, the antibodies captured on the chip were washed off by reacting 10 mM glycine-HCl, pH 1.5.

[2] = target: T2, FcγRIa; assay: SPR (Biacore), relative to GpH7-A5/GpH7-B3/GpL16-k0 = 100
[3] = target: T1, FcγRIIb; assay: as above

Row | Binder | Ia/IIb He_1a/2b [1] | He/Con_1a (Ia binding) [2] | He/Con_2b (IIb binding) [3]
1 | B1 | 1.21 | 104 relative (control = 100) | 85.8 relative (control = 100)
2 | B2 | 1.68 | 112 relative (control = 100) | 66.8 relative (control = 100)
3 | B3 | 1.29 | 114 relative (control = 100) | 88.2 relative (control = 100)
4 | B4 | 1.31 | 114 relative (control = 100) | 87.5 relative (control = 100)
5 | B5 | 1.58 | 117 relative (control = 100) | 73.9 relative (control = 100)
6 | B6 | 1.45 | 108 relative (control = 100) | 74.5 relative (control = 100)
7 | B7 | 8.22 | 60.2 relative (control = 100) | 7.3 relative (control = 100)
8 | B8 | 1.37 | 121 relative (control = 100) | 88.4 relative (control = 100)
9 | B9 | 1.35 | 105 relative (control = 100) | 77.4 relative (control = 100)
10 | B10 | 1.33 | 112 relative (control = 100) | 84.3 relative (control = 100)
11 | B11 | 1.35 | 113 relative (control = 100) | 83.5 relative (control = 100)
12 | B12 | 1.62 | 112 relative (control = 100) | 69.2 relative (control = 100)
13 | B13 | 1.61 | 102 relative (control = 100) | 63.1 relative (control = 100)
14 | B14 | 1.42 | 116 relative (control = 100) | 81.1 relative (control = 100)
15 | B15 | 1.49 | 102 relative (control = 100) | 68.6 relative (control = 100)
16 | B16 | 1.54 | 113 relative (control = 100) | 73.6 relative (control = 100)
